According to publication PMC5574023:

Target: platelet receptor GPIIbIIIa (αIIbβ3) on human platelets, P08514;P05106
Assay: platelet adhesion to immobilized protein (phosphatase assay)
Settings: read off a plot

Substance | response (Absorbance (405 nm)) (parent: est. 0.48) | response (Absorbance (405 nm)) (parent: est. 0.88) | response (Absorbance (405 nm)) (TRAP-activated gel-filtered platelets, 2 × 10^7 per well, 10 μg protein per well, 37°C, 45 min, static, parent: est. 0.88) | response (Absorbance (405 nm)) (non-activated gel-filtered platelets, 2 × 10^7 per well, 10 μg protein per well, 37°C, 45 min, static, parent: est. 0.48)
recombinant PadA-F2 region fragment (from UniProt A8AZP4) G486A; D487A | 0.27 | 0.87 |  | 
recombinant PadA-F2 region fragment (from UniProt A8AZP4) N214A; G215A; R216A; R416A; G417A; T418A; G486A; D487A |  |  | 0.2 | 0.49
recombinant PadA-F2 region fragment (from UniProt A8AZP4) R416A; G417A; T418A; G486A; D487A | 0.71 | 0.44 |  | 
recombinant PadA-F2 region fragment (from UniProt A8AZP4) R416A; G417A; T418A | 0.21 | 0.8 |  | 
recombinant PadA-F2 region fragment (from UniProt A8AZP4) N214A; G215A; R216A | 0.28 | 0.72 |  | 
